In US9663581 one finds ADCC EC50 (LDH release, Raji target cells, human PBMC effector cells) data, which are given here for one substance.

This test has as its target FcγRIIIa on NK cells (human) (UniProt P08637). In words: cell-based or functional assay.
UniProt P08637, sequence (P08637 17-254): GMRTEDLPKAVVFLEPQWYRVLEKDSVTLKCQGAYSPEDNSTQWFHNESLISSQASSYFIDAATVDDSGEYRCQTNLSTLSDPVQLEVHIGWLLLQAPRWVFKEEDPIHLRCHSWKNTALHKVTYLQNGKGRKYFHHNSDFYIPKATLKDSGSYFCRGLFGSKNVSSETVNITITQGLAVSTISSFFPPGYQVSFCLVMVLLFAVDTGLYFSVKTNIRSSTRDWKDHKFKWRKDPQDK

Substance wild type rituximab (antibody) yielded an ADCC EC50 (LDH release, Raji target cells, human PBMC effector cells) of 0.046 µg/mL.
